We go through two molecules from publication PMC11718114 (2025).

For experiment [1], the target named is PI3Kα: p110α(2-1068) W1057A/I1058A/F1059A + p85(322-600) (human, UniProt P42336 2-1068; P27986 322-600, W1057A | I1058A | F1059A). Nature of the experiment: ITC. In general terms: ITC needs no label: the signal is the heat of the interaction.
Experiment [2] concerns the target PI3Kγ(144-1102)-His6 (human, UniProt P48736 144-1102). The experiment is described as follows: ITC.

Chain of PI3Kγ(144-1102)-His6 (P48736 144-1102): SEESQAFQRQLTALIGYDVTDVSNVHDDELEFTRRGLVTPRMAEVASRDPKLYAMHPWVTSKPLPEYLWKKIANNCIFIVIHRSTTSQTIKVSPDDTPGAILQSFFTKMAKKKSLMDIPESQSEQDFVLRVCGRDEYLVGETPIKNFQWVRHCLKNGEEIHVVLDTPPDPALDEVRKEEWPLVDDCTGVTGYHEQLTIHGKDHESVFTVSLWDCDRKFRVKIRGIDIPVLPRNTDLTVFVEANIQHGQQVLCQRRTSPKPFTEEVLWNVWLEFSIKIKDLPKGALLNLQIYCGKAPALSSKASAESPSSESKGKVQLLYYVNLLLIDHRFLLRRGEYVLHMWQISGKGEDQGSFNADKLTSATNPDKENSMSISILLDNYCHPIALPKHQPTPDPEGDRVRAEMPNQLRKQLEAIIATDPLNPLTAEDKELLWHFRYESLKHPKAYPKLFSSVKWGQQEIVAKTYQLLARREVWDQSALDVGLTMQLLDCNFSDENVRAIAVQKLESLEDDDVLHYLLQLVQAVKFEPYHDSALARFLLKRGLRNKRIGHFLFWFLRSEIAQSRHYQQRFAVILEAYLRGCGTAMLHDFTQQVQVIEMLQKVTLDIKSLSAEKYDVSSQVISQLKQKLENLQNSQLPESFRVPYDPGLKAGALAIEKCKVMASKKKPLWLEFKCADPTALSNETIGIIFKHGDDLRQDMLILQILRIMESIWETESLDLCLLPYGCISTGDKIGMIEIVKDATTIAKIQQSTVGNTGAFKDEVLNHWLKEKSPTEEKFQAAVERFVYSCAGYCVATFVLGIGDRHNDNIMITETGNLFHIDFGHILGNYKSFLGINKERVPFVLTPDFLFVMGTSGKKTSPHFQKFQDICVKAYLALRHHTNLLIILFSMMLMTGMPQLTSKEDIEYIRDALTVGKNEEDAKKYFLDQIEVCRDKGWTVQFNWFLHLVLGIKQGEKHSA

B1: RRAS(22-192) (domain or fragment)
chain: GDPPPSETHKLVVVGGGGVGKSALTIQFIQSYFVSDYDPTIEDSYTKICSVDGIPARLDILDTAGQEEFGAMREQYMRAGHGFLLVFAINDRQSFNEVGKLFTQILRVKDRDDFPVVLVGNKADLESQRQVPRSEASAFGASHHVAYFEASAKLRLNVDEAFEQLVRAVRK
As to B1, in experiment [1], the Kd worked out at 27.6 µM.

B2: RRAS2 (wild type) (domain or fragment)
chain: MAAAGWRDGSGQEKYRLVVVGGGGVGKSALTIQFIQSYFVTDYDPTIEDSYTKQCVIDDRAARLDILDTAGQEEFGAMREQYMRTGEGFLLVFSVTDRGSFEEIYKFQRQILRVKDRDEFPMILIGNKADLDHQRQVTQEEGQQLARQLKVTYMEASAKIRMNVDQAFHELVRVIRKFQ
Molecule B2 came in with a Kd in experiment [2] of 5.5 µM.

The Kd is a measure of binding affinity in units of concentration.
